Experimental data from the Human Domainome abundance scans (Beltran et al. 2025).
± gives the uncertainty stated by the source.

B1: 1-phosphatidylinositol 4,5-bisphosphate phosphodiesterase gamma-2, residues 772 to 827; numbered along this chain, P16885 (parent)
chain: RTVKALYDYKAKRSDELSFCRGALIHNVSKEPGGWWKGDYGTRIQQYFPSNYVEDI

Variants of: B1
Assay: abundance fitness (aPCA) (normalised: wild type 0, dead -1); higher = more abundant; growth selection in yeast, the domain comes from the species named
Conditions: Homo sapiens
In the case of RTVKALYDYKAGRSDELSFCRGALIHNVSKEPGGWWKGDYGTRIQQYFPSNYVEDI [K12G], the abundance fitness is reported as -0.182 ± 0.063. With RTVKALYDYKAERSDELSFCRGALIHNVSKEPGGWWKGDYGTRIQQYFPSNYVEDI [K12E] the abundance fitness was -0.206 ± 0.18. RTVKALYDYKAIRSDELSFCRGALIHNVSKEPGGWWKGDYGTRIQQYFPSNYVEDI [K12I] showed an abundance fitness of -0.405 ± 0.13. RTVKALYDYKAARSDELSFCRGALIHNVSKEPGGWWKGDYGTRIQQYFPSNYVEDI [K12A] showed an abundance fitness of -0.16 ± 0.078. RTVKALYDYKAHRSDELSFCRGALIHNVSKEPGGWWKGDYGTRIQQYFPSNYVEDI [K12H] gave an abundance fitness of 0.113 ± 0.13. RTVKALYDYKAFRSDELSFCRGALIHNVSKEPGGWWKGDYGTRIQQYFPSNYVEDI [K12F] gave an abundance fitness of -0.63 ± 0.15. RTVKALYDYKALRSDELSFCRGALIHNVSKEPGGWWKGDYGTRIQQYFPSNYVEDI [K12L] showed an abundance fitness of -0.177 ± 0.067. RTVKALYDYKACRSDELSFCRGALIHNVSKEPGGWWKGDYGTRIQQYFPSNYVEDI [K12C] gave an abundance fitness of -0.705 ± 0.15. For RTVKALYDYKAMRSDELSFCRGALIHNVSKEPGGWWKGDYGTRIQQYFPSNYVEDI [K12M], the abundance fitness was -0.004 ± 0.068. With RTVKALYGYKAKRSDELSFCRGALIHNVSKEPGGWWKGDYGTRIQQYFPSNYVEDI [D8G] the abundance fitness was -0.083 ± 0.072. With RTVKALYMYKAKRSDELSFCRGALIHNVSKEPGGWWKGDYGTRIQQYFPSNYVEDI [D8M] the abundance fitness was -0.579 ± 0.13. Variant RTVKALYVYKAKRSDELSFCRGALIHNVSKEPGGWWKGDYGTRIQQYFPSNYVEDI [D8V] has an abundance fitness of -0.982 ± 0.2. For RTVKALYYYKAKRSDELSFCRGALIHNVSKEPGGWWKGDYGTRIQQYFPSNYVEDI [D8Y], the abundance fitness was -0.576 ± 0.1. Work on RTVKALYWYKAKRSDELSFCRGALIHNVSKEPGGWWKGDYGTRIQQYFPSNYVEDI [D8W] yielded an abundance fitness of -0.634 ± 0.18. Work on RTVKALYNYKAKRSDELSFCRGALIHNVSKEPGGWWKGDYGTRIQQYFPSNYVEDI [D8N] yielded an abundance fitness of -0.059 ± 0.054. RTVKALYFYKAKRSDELSFCRGALIHNVSKEPGGWWKGDYGTRIQQYFPSNYVEDI [D8F] gave an abundance fitness of -0.382 ± 0.24. For RTVKALYEYKAKRSDELSFCRGALIHNVSKEPGGWWKGDYGTRIQQYFPSNYVEDI [D8E], the abundance fitness was -0.17 ± 0.09. RTVKALYCYKAKRSDELSFCRGALIHNVSKEPGGWWKGDYGTRIQQYFPSNYVEDI [D8C] gave an abundance fitness of -0.105 ± 0.074. For RTVKALYRYKAKRSDELSFCRGALIHNVSKEPGGWWKGDYGTRIQQYFPSNYVEDI [D8R], the abundance fitness was -0.452 ± 0.059. RTVKALYSYKAKRSDELSFCRGALIHNVSKEPGGWWKGDYGTRIQQYFPSNYVEDI [D8S] showed an abundance fitness of -0.059 ± 0.076. RTVKALYTYKAKRSDELSFCRGALIHNVSKEPGGWWKGDYGTRIQQYFPSNYVEDI [D8T] gave an abundance fitness of 0.078 ± 0.095. RTVKALYAYKAKRSDELSFCRGALIHNVSKEPGGWWKGDYGTRIQQYFPSNYVEDI [D8A] gave an abundance fitness of 0.068 ± 0.09. With RTVKALYDWKAKRSDELSFCRGALIHNVSKEPGGWWKGDYGTRIQQYFPSNYVEDI [Y9W] the abundance fitness was -0.223 ± 0.098. In the case of RTVKALYDKKAKRSDELSFCRGALIHNVSKEPGGWWKGDYGTRIQQYFPSNYVEDI [Y9K], the abundance fitness is reported as -0.816 ± 0.25. In the case of RTVKALYDEKAKRSDELSFCRGALIHNVSKEPGGWWKGDYGTRIQQYFPSNYVEDI [Y9E], the abundance fitness is reported as -0.868 ± 0.31. In the case of RTVKALYDSKAKRSDELSFCRGALIHNVSKEPGGWWKGDYGTRIQQYFPSNYVEDI [Y9S], the abundance fitness is reported as -0.939 ± 0.27. With RTVKALYDTKAKRSDELSFCRGALIHNVSKEPGGWWKGDYGTRIQQYFPSNYVEDI [Y9T] the abundance fitness was -0.931 ± 0.24. RTVKALYDRKAKRSDELSFCRGALIHNVSKEPGGWWKGDYGTRIQQYFPSNYVEDI [Y9R] showed an abundance fitness of -0.685 ± 0.098. RTVKALYDVKAKRSDELSFCRGALIHNVSKEPGGWWKGDYGTRIQQYFPSNYVEDI [Y9V] gave an abundance fitness of -1.07 ± 0.33. RTVKALYDLKAKRSDELSFCRGALIHNVSKEPGGWWKGDYGTRIQQYFPSNYVEDI [Y9L] showed an abundance fitness of -0.923 ± 0.19. With RTVKALYDCKAKRSDELSFCRGALIHNVSKEPGGWWKGDYGTRIQQYFPSNYVEDI [Y9C] the abundance fitness was 0.089 ± 0.17. In the case of RTVKALYDPKAKRSDELSFCRGALIHNVSKEPGGWWKGDYGTRIQQYFPSNYVEDI [Y9P], the abundance fitness is reported as -0.734 ± 0.3. For RTVKALYDHKAKRSDELSFCRGALIHNVSKEPGGWWKGDYGTRIQQYFPSNYVEDI [Y9H], the abundance fitness was -0.164 ± 0.26. For RTVKALYDGKAKRSDELSFCRGALIHNVSKEPGGWWKGDYGTRIQQYFPSNYVEDI [Y9G], the abundance fitness was -0.949 ± 0.11. For RTVKAGYDYKAKRSDELSFCRGALIHNVSKEPGGWWKGDYGTRIQQYFPSNYVEDI [L6G], the abundance fitness was -0.721 ± 0.078. RTVKAEYDYKAKRSDELSFCRGALIHNVSKEPGGWWKGDYGTRIQQYFPSNYVEDI [L6E] gave an abundance fitness of -0.631 ± 0.12. RTVKANYDYKAKRSDELSFCRGALIHNVSKEPGGWWKGDYGTRIQQYFPSNYVEDI [L6N] showed an abundance fitness of -0.257 ± 0.088. With RTVKAHYDYKAKRSDELSFCRGALIHNVSKEPGGWWKGDYGTRIQQYFPSNYVEDI [L6H] the abundance fitness was -0.834 ± 0.16. In the case of RTVKAWYDYKAKRSDELSFCRGALIHNVSKEPGGWWKGDYGTRIQQYFPSNYVEDI [L6W], the abundance fitness is reported as -0.935 ± 0.47. RTVKARYDYKAKRSDELSFCRGALIHNVSKEPGGWWKGDYGTRIQQYFPSNYVEDI [L6R] showed an abundance fitness of -0.177 ± 0.074. For RTVKAKYDYKAKRSDELSFCRGALIHNVSKEPGGWWKGDYGTRIQQYFPSNYVEDI [L6K], the abundance fitness was 0.01 ± 0.1. Work on RTVKAVYDYKAKRSDELSFCRGALIHNVSKEPGGWWKGDYGTRIQQYFPSNYVEDI [L6V] yielded an abundance fitness of -0.356 ± 0.075. For RTVKATYDYKAKRSDELSFCRGALIHNVSKEPGGWWKGDYGTRIQQYFPSNYVEDI [L6T], the abundance fitness was -0.161 ± 0.14. RTVKAFYDYKAKRSDELSFCRGALIHNVSKEPGGWWKGDYGTRIQQYFPSNYVEDI [L6F] gave an abundance fitness of -0.456 ± 0.35. In the case of RTVKAIYDYKAKRSDELSFCRGALIHNVSKEPGGWWKGDYGTRIQQYFPSNYVEDI [L6I], the abundance fitness is reported as 0.09 ± 0.16. In the case of RTVKAPYDYKAKRSDELSFCRGALIHNVSKEPGGWWKGDYGTRIQQYFPSNYVEDI [L6P], the abundance fitness is reported as -0.691 ± 0.18. For RTVKAQYDYKAKRSDELSFCRGALIHNVSKEPGGWWKGDYGTRIQQYFPSNYVEDI [L6Q], the abundance fitness was -0.485 ± 0.087.
